The Kd is the constant that tells how readily two partners part at equilibrium. In general, stoichiometry N refers to a count of units in the complex or per binding partner.

Consider four molecules from publication PMC5531588, “Staphylococcus aureus single-stranded DNA-binding protein SsbA can bind but cannot stimulate PriA helicase”.

Data set [1] has as its target Staphylococcus aureus PriA helicase (S. aureus). Briefly: SPR; SaPriA immobilised on CM5 chip, Biacore T200, 293 K, 40 mM Tris, 200 mM NaCl, 0.05% Tween-20, pH 8.0; analyte injected 120 s at 30 uL/min; 1:1 (Langmuir) model. On the technique in general: SPR reads the build-up and loss of mass on a sensor chip optically.
For data set [2], the target named is Staphylococcus aureus single-stranded DNA-binding protein SsbA (S. aureus subsp. aureus ED98). Briefly: SEC; purified SaSsbA (2 mg/mL) on Superdex 200 prep grade in Buffer B (20 mM HEPES, 100 mM NaCl, pH 7.0), calibrated with proteins of known molecular weight.
In another data set the target is SaSsbA (Staphylococcus aureus subsp. aureus ED98, UniProt A0A0D1JHQ1 1-167). Briefly: EMSA; 100 mM NaCl; EMSA: 20 mM Tris-HCl pH 8.0, 100 mM NaCl (or 0.4 M NaCl), 1.7 nM DNA, 25 C, 30 min; native 8% PAGE in TBE at 4 C. As to conditions: protein: recombinant; chain copies: 4; label: 32P (5' end, T4 PNK); single strand.

In turn, “Staphylococcus aureus single-stranded DNA-binding protein SsbA (natural protein)” returned a Kd in data set [1] of 0.046 µM. In data set [2], this molecule had a stoichiometry N of 4.
TTTTTTTTTTTTTTTTTTTT (ssDNA) [dT20]: the “apparent K (half saturation)” value with SaSsbA worked out at 292 ± 28 nM.
On to TTTTTTTTTTTTTTTTTTTTTTTTTTTTTT (ssDNA) [dT30], for which the “apparent K (half saturation)” value in the data set with SaSsbA stood at 186 ± 20 nM.
Turning to TTTTTTTTTTTTTTTTTTTTTTTTTTTTTTTTTTTTTTTT (ssDNA) [dT40], in the data set with SaSsbA, the “apparent K (half saturation)” value is 90 ± 5 nM.
